# Measured values taken from publication PMC2699888 (Oncogene, 2006).
# Ends that are not written are not given here. * marks the point of attachment. Biotin = O=C1N[C@H]2[C@H](CS[C@H]2CCCCC(=O)*)N1
# Target: purified human PCNA (human, UniProt P12004 1-261)
# Assay: ELISA
# purified human PCNA, sequence (P12004 whole entry): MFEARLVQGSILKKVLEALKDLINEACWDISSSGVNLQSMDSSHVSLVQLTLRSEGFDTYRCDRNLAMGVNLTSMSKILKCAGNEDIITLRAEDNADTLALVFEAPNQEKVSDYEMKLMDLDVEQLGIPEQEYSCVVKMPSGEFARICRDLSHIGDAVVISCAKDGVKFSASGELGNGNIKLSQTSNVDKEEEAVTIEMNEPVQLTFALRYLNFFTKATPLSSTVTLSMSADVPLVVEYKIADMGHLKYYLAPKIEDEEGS
row,Binder,binding result
1,"Biotin-SGSGDPDCGCSRRGCVLRMIRRRN (cysteine pairing not given here) [pep102, biotinylated synthetic peptide]",binds
2,"Biotin-SGSGKLFNLHINSAVLQKKITDYF [pogo, biotinylated peptide derived from the Drosophila Pogo transposase]",binds
3,"Biotin-SGSGDPLWCQSAVFLIRMWLRSRN [pep103, biotinylated synthetic peptide]",binds
